Molecular target: human 6His-14-3-3ζ (human) (UniProt P63104)
Experiment: pull-down; 6His-14-3-3ζ (0.1 mg) immobilised on Ni-NTA resin, 300 μL lysate of HEK293 cells expressing SNAP-TM reporters overnight at 4°C, 1% Triton X-100 in PBS with 25 mM imidazole; blot for the SNAP-tag, amount pulled down normalised to CT_(598-910), CT_(731-910) or untreated control; in some samples cells were treated before lysis with staurosporine (three hours) or more specific kinase inhibitors

Sequence of UniProt P63104 (P63104 whole entry): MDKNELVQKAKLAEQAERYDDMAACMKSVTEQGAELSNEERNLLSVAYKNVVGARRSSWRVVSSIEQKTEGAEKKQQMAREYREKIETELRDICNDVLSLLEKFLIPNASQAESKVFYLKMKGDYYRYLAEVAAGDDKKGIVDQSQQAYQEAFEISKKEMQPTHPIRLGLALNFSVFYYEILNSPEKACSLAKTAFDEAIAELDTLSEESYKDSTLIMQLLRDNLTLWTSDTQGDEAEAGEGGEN

Q: With “SNAP-TM-HCN1CT reporter with loss of residues 803-910 (from UniProt O88704 598-802) (domain or fragment)” as the substance, how does the fold of reporter pulled down compared to CT (598-910) read?
A: 0.2 fold

Q: With “SNAP-TM-HCN1CT reporter CT_(731-910; S810A; S867A) (from UniProt O88704 731-910) (domain or fragment)” as the substance, how does the fold of reporter pulled down compared to CT (731-910) read?
A: 0.33 fold

Q: For “SNAP-TM-HCN1CT reporter serially truncated to lack the region containing peptide C (amino acids 850-880) (from UniProt O88704 598-850) (domain or fragment)”, which fold of reporter pulled down compared to CT (598-910) is on record?
A: 0.61 fold

Q: With “SNAP-TM-HCN1CT reporter serially truncated to also lack the region containing peptide B (residues 790-820) (from UniProt O88704 598-790) (domain or fragment)” as the substance, how does the fold of reporter pulled down compared to CT (598-910) read?
A: 0.23 fold

Q: “SNAP-TM-HCN1CT reporter CT_(731-910; Δ804–814; Δ861–871) (from UniProt O88704 731-910) (domain or fragment)” was tested. Which fold of reporter pulled down compared to CT (731-910) did it give?
A: 0.26 fold

Q: With “SNAP-TM-HCN1CT reporter lacking the distal 30 amino acid block with the TRIP8b-tripeptide binding site (from UniProt O88704 598-880) (domain or fragment)” as the substance, how does the fold of reporter pulled down compared to CT (598-910) read?
A: 1.18 fold

Q: With “SNAP-TM-HCN1CT reporter CT_(731-910) (from UniProt O88704 731-910) (domain or fragment)” as the substance, how does the fold of reporter pulled down compared to CT (598-910) read?
A: 1.39 fold

Q: And the fold of reporter pulled down from cells treated with the PKC inhibitor bisindolylmaleimide I compared to untreated control?
A: 0.61 fold

Q: And the fold of reporter pulled down from cells treated with the p38MAPK inhibitor PD 169316 compared to untreated control?
A: 0.61 fold

Q: What about the fold of reporter pulled down from staurosporine-treated cells compared to untreated control of the same substance?
A: 0.26 fold

— paper PMC9182292
